Experimental data taken from the supplement of paper PMC10567573.

B1: CDC25A (parent)
chain: QLIDPDENKENEAFEFKKPVRPVS

Variants of: B1
Assay: protein stability index of a GFP-peptide fusion (GPS, HEK-293T) (PSI 1-6); higher = more stable
Conditions: c terminus: a fixed tail appended
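Further: lentivirally expressed fusions sorted by FACS into six bins by GFP to DsRed ratio, PSI derived from sequencing read proportions per bin multiplied by bin number.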

Protein stability index of substitutions, site by site:
K9: H 4.18, E 4.62, C 4.54, L 3.51, N 4.65, Y 5.01, M 4.09, W 3.82, A 4.37, R 4.21, P 4.62, V 4.83, D 4.97, S 4.39, Q 4.74, F 4.04, G 4.2, I 3.89, T 4
E15: T 3.92, A 4.01, Y 3.02, L 3.36, F 3.41, V 3.36, S 4, K 4.3, H 3.57, W 3.54, N 3.13, M 4.37, I 3.7, G 2.89, Q 4.08, D 3.77, R 2.37, P 4.16
V23: E 4.1, A 4.32, D 4.41, C 3.9
E7: G 3.02, P 4.68, R 3.92, V 4.11, K 4.59, Q 3.58, C 4, S 3.37, Y 3.45, A 4.25, W 3.3, N 3.42, D 3.97, L 3.33, F 3.63, I 4.06, T 4.15, H 3.94, M 3.95
D4: S 3.58, R 3.3, V 3.44, Y 3.84, M 3.94, W 3.45, N 3.2, T 3.65
P19: Q 4.02, N 4.43, H 3.95, C 3.6, F 4.44, A 4.44, L 3.52, G 4.06, R 3.85, W 3.87, S 4.09, V 4.42, I 4.07, M 3.74, Y 3.07, T 4.09
K18: I 3.97, D 4.47, F 4.33, T 4.33, E 5.52, L 4.39, N 4.4, C 4.1, V 4.23, A 3.7, P 4.29, W 3.73, G 4.04, H 3.82, R 3.89, Y 4, S 4.55, M 3.66
N8: V 4.94, D 4.28, C 4.45, E 3.95, Y 3.59, T 4.61, K 4.5, M 4.09, P 4.28, F 4.08, G 5.06, S 4.05, I 4.7, L 4.52, R 4.86, A 4.31, H 4.59, Q 4.95
D6: N 4.4, A 3.75, I 4.22, Q 4.6, T 3.87, E 3.88, Y 4.02, W 3.59, H 3.94, R 3.58, P 4.53, K 3.87, F 3.88, V 3.83, S 3.74, G 3.64, C 4.51, M 4.14, L 3.23
V20: A 4.09, S 4, D 4.31, L 2.85, T 4.54, P 4.43, R 3.73, G 3.97, K 4.67, F 3.71, H 4.3, E 4.04, W 3.59, I 4, Q 3.79, M 3.82, N 4.63, C 3.61
F14: K 5, M 3.8, A 4.68, N 3.98, I 4.04, V 4.55, T 3.73, Q 3.94, P 4.92, D 5.04, Y 4.12, S 4.5, R 3.79, W 3.2, E 4.78, C 4.55, H 4.42, G 4.53, L 4.21
N11: Q 4.32, P 4.49, C 4.23, K 4.56, S 4.22, F 4.02, W 4.02, V 4.63, E 4.22, A 3.81, I 4.53, Y 4.29, D 4.68, L 4.65, M 4.25, T 4.99
A13: N 3.77, F 3.02, D 4.34, M 4.11, G 3.71, W 3.02, S 3.85, K 3.63, P 4.25, T 3.9, R 3.24, E 3.57, C 3.52, I 4.23, Q 4.02, V 2.88, H 3.26, Y 3.99, L 3.73
K17: G 3.91, N 3.15, T 3.58, F 3.88, S 3.48, W 3.43, P 4.27, M 3.03, E 3.46, I 3.54, V 3.98, H 3.84, R 3.78, A 4.44, L 3.36, C 2.78, Y 3.7, Q 4.03
E12: P 4.17, Y 3.38, N 3.27, S 4.16, G 4.61, A 3.34, R 3.1, C 3.55, Q 3.85, K 3.84, W 3.19, L 3.56, H 3.21, F 2.87, I 3.34, T 3.94, V 3.36, M 2.78
P22: D 4.45, H 3.38, M 4.08, G 3.66, L 3.45, C 4.98, A 3.23, K 3.25, Y 4.71, V 4.05, T 2.8, I 4.31, R 4.23, S 4.05, N 4.14, F 3.69
P5: R 3.66, Y 2.85, Q 3.87, D 3.92, C 4.12, W 3.51, V 3.74, F 2.88, N 4.06, K 3.95, M 3.88, A 3.99, T 3.61, H 3.61, G 3.9, I 3.07, S 3.25
E10: K 4.35, C 3.84, N 3.78, M 3.71, W 4.02, T 4.3, S 4.2, D 3.98, P 3.1, I 4.13, F 3.12, Y 4.78, A 4.25, Q 4.29, G 4.33, V 3.36, R 4.43, L 3.97
R21: V 3.19, E 4.33, P 4.46, F 2.74, L 3.8, K 4.04, I 3.39, G 4.97, A 3.27, T 4.04, H 3.85, Q 4.67, C 4.34, D 4.25, M 3.81, N 5, W 3.28
F16: A 4.03, D 4.46, G 3.76, P 3.83, C 4.6, K 3.99, Y 3.58, T 4.48, W 4.33, S 4.21, H 4.56, I 3.35, L 4.56, M 3.73, N 4.08, E 4.18, V 4.39, R 4.53, Q 3.73
